Ends that are not written are not given here. * marks the point of attachment. Biotin = O=C1N[C@H]2[C@H](CS[C@H]2CCCCC(=O)*)N1
Experiments:
[1] = target: T1, Peptide Aβ2-13, AEFRHDSGYEVHGSGK-biotin; test: Biacore, peptide on streptavidin chip
T1 construct: The range counts on the β-amyloid peptide; also called 2-13 peptide; β-amyloid peptide 2-13
T1 peptide: Ac-AEFRHDSGYEVHGSGK(Biotin)
Experimental: (§1) In addition to the experiments described above, the Biacore™ 3000 optical biosensor was used to monitor the binding of 2E7 antibody to selected β-amyloid sequence derived peptides. Binding was measured by injecting test antibodies at up to 64 nM for 5 minute over peptides captured on separate streptavidin chip surfaces (130-230 RU (resonance units)). A running buffer (HBS-EP) containing 0.01 M HEPES pH7.4, 0.15 M NaCl, 3 mM EDTA and 0.005% Surfactant P20™ at 25° C. was used at a flow rate of 20 ul/min. All runs were double referenced against a blank streptavidin surface and blank injections. Analysis was carried out using the Biacore™ analysis software BIAevaluation™ version 4.1.
(§2) In a study similar to the epitope mapping study on 2E7 using the Surface Plasmon Resonance assay described above, H2L1 behaved similarly to 2E7 in binding to the peptide encompassing amino acids 1-12 (Aβ1, SEQ ID No:15) of the β-amyloid peptide and not to the peptide encompassing amino acids 2-13 of the β-amyloid peptide (Aβ2-13, SEQ ID No:44).

[2] = target: T2, human Aβ peptide (1-40) biotinylated at the C terminus (human, UniProt P05067 672-711, biotinylated at the C-terminus); test: Aβ binding ELISA with culture supernatant, Aβ peptide (1-40)
T2 construct: domain: β-amyloid peptide (1-40); Numbers 1-40 count on the β-amyloid peptide, not on APP; also called beta-amyloid 1-40 peptide (biotinylated at the C-terminus); streptavidin-captured beta-amyloid (1-40)

[3] = target: T2, human Aβ peptide (1-40) biotinylated at …; test: Aβ binding ELISA, human Aβ (1-40) biotinylated at the C terminus
[4] = target: T2, human Aβ peptide (1-40) biotinylated at …; test: as above; remark: listed apart in the source
[5] = target: T2, human Aβ peptide (1-40) biotinylated at …; test: as above; remark: listed apart in the source
[6] = target: T3, human beta-amyloid peptide (1-40) (human, UniProt P05067 672-711); test: SPR Biacore 3000, Method A(ii): β-amyloid amine-coupled to CM5 chip, antibody 1-64 nM as analyte
T3 construct: domain: beta-amyloid peptide (1-40); Unlabelled peptide: amine-coupled to a CM5 chip (Method A(ii)) or in solution as analyte (Method B); also called beta-amyloid (1-40)
Experimental: (§3) (i) Briefly, <20 resonance units of beta-amyloid 1-40 peptide (biotinylated at the C-terminus) were captured on a streptavidin biosensor chip (as used for Table 10A). The antibodies were diluted down in HBS-EP buffer and passed over the streptavidin/beta-amyloid surface at concentrations ranging from 0.001 nM-8 nM (for Table 10A). Two separate runs were carried out; each run was carried out on a new streptavidin/beta-amyloid surface. Runs 1 and 2 were essentially the same though there were some differences in the parameters used; Run 1 was carried out using a chip surface on which 16 RU's of beta-amyloid were captured, and antibody concentrations of 0.001 nM-8 nM were used, an association time of 4 minutes and a dissociation time of 20 minutes were used at a flow rate of 50 μl per minute. For Run 2, less than 10 RU's of beta-amyloid were captured and antibody concentrations of 0.003125 nM-8 nM were used. The flow rate and association times were the same as Run 1, however the dissociation time was reduced to 15 minutes. (ii) Beta amyloid (1-40) and (1-42) were amine-coupled on different surfaces of a CM5 biosensor chip to a level of <20 resonance units (as used for Table 10B). The antibodies were diluted down in HBS-EP buffer and passed over the biosensor/beta-amyloid surface at concentrations ranging from 1 nM-64 nM (as used for Table 10B).
(§4) In both methods, regeneration was via a pulse of 100 mM H₃PO₄, and for Table 10A data also followed by a pulse of 50 mM NaOH. […] All runs were double referenced against buffer blank injections. Analysis was carried out using the Biacore™ analysis software BIAevaluation version 4.1.

[7] = target: T4, human beta-amyloid peptide (1-42) (human, UniProt P05067 672-713); test: as above
T4 construct: domain: beta-amyloid peptide (1-42); Unlabelled peptide: amine-coupled to a CM5 chip (Method A(ii)) or in solution as analyte (Method B); also called beta-amyloid (1-42)
Experimental: as §3, §4

[8] = target: T2, human Aβ peptide (1-40) biotinylated at …; test: SPR Biacore 3000, Method A(i): C-terminally biotinylated β-amyloid 1-40 on streptavidin chip, antibody as analyte; Run 1
Experimental: as §3, §4

[9] = target: T2, human Aβ peptide (1-40) biotinylated at …; test: SPR Biacore 3000, Method A(i): C-terminally biotinylated β-amyloid 1-40 on streptavidin chip, antibody as analyte; Run 2
Experimental: as §3, §4

[10] = target: T5, human Aβ peptide (length not stated) (human, UniProt P05067 672-711); test: competition ELISA, β-amyloid in solution pre-incubated with the antibody; competitor: immobilised mouse 2E7; Experiment 1
T5 construct: also called β-amyloid in solution
Experimental: (§5) 2) β-amyloid in solution; a constant concentration of β-amyloid was pre-incubated with a dilution series of humanised 2E7 antibody variants—the mixture including complexed and free amyloid was added for a short time to wells containing immobilised mouse 2E7 MAb. The amount of free β-amyloid that was still available for binding the immobilised parental 2E7 MAb was then detected.

[11] = target: T5, human Aβ peptide (length not stated); test: competition ELISA, β-amyloid in solution pre-incubated with the antibody; competitor: immobilised mouse 2E7; Experiment 2
Experimental: as §5

[12] = target: T2, human Aβ peptide (1-40) biotinylated at …; test: competition ELISA, biotinylated human Aβ (1-40) on streptavidin plate; competitor: mouse 2E7 at constant concentration; Experiment 1
Experimental: (§6) Two types of competition ELISA were established in order to compare the Aβ binding activity of the three humanised variants compared to the 2E7 chimeric antibody. 1) Immobilised β-amyloid; biotinylated human Aβ peptide (1-40) was immobilized through Streptavidin on ELISA plates Mouse 2E7 antibody was added at a constant concentration along with a dilution series of 2E7-derived humanised variant antibodies. Bound mouse 2E7 MAb was then detected with anti-mouse IgG conjugate.

[13] = target: T2, human Aβ peptide (1-40) biotinylated at …; test: competition ELISA, biotinylated human Aβ (1-40) on streptavidin plate; competitor: mouse 2E7 at constant concentration; Experiment 2
Experimental: as §6

[14] = target: T2, human Aβ peptide (1-40) biotinylated at …; test: SPR Biacore 3000, Method A(i): C-terminally biotinylated β-amyloid 1-40 on streptavidin chip, antibody as analyte; Average(SD) of two runs
Experimental: as §3, §4

[15] = target: T3, human beta-amyloid peptide (1-40); test: SPR Biacore 3000, Method B: antibody captured on protein A surface, β-amyloid 4-500 nM as analyte; n = 3; peptide length not given
Experimental: (§7) In the second instance the assay was reversed, in that antibodies were first captured to a level of 1000-2500 resonance units on an anti-mouse IgG polyclonal antibody surface (for recombinant mouse 2E7 MAb) or a protein A surface (for humanized H2L1) of a CM5 biosensor chip. Freshly prepared beta-amyloid (1-40) or (1-42) was diluted down in HBS-EP buffer and passed over the captured-antibody surface at concentrations ranging from 4-500 nM (Table 10C and 10D).
as §4

[16] = target: T6, Set (B) peptide encompassing amino acids 1-7 of the β-amyloid peptide, DAEFRHD--GSGGSGGSK-biotin; test: SRU BIND biosensor, peptide set (B)
T6 peptide: DAEFRHDGSGGSGGSK(Biotin)

[17] = target: T7, Set (B) peptide encompassing amino acids 1-6 of the β-amyloid peptide, DAEFRH--GSGGSGGSGK-biotin; test: SRU BIND biosensor, peptide set (B)
T7 peptide: DAEFRHGSGGSGGSGK(Biotin)

[18] = target: T8, Set (B) peptide encompassing amino acids 1-5 of the β-amyloid peptide, DAEFR--GSGGSGGSGSK-biotin; test: SRU BIND biosensor, peptide set (B)
T8 peptide: DAEFRGSGGSGGSGSK(Biotin)

[19] = target: T9, Peptide APP1, AcNH-SEVKMDAEFRHDGSGK-biotin; test: Biacore, peptide on streptavidin chip
T9 construct: also called APP derived peptide APP1
T9 peptide: Ac-SEVKMDAEFRHDGSGK(Biotin)
Experimental: as §1, §2

[20] = target: T1, Peptide Aβ2-13, AEFRHDSGYEVHGSGK-biotin; test: Biacore 3000, peptide on streptavidin chip
Experimental: as §1
In a separate experiment the β-amyloid 1-40 peptide was captured via its N-terminal aspartic acid residue that had been biotinylated. This peptide was captured onto a Biacore™ streptavidin coated chip as previously described. Antibody 2E7 injected at 66 nM for 1 minute could not bind this peptide. Therefore, it is concluded that the previously descibed N-terminal binding site was masked by the linker and capture method, thus further confirming the extreme N-terminus as containing the core binding site

[21] = target: T3, human beta-amyloid peptide (1-40); test: SPR Biacore 3000, Method B: antibody captured on anti-mouse IgG surface, β-amyloid 4-500 nM as analyte; n = 3; peptide length not given
Experimental: as §7, §4

T2 sequence (P05067 672-711 limits assumed): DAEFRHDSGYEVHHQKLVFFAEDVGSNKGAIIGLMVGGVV
T3 sequence (P05067 672-711 limits assumed): as above
T4 sequence (P05067 672-713 limits assumed): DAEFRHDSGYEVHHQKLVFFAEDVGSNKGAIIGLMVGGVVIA
T5 sequence (P05067 672-711): as the sequence (P05067 672-711 limits assumed) above

B1: Humanised 2E7 variant H2L1 (antibody, human IgG1, kappa, V domains shown)
VH: EVQLVESGGGLVQPGGSLRLSCAVSGFTFSDNGMAWVRQAPGKGLEWVSFISNLAYSIDYADTVTGRFTISRDNAKNSLYLQMNSLRAEDTAVYYCVSGTWFAYWGQGTLVTVSS
VL: DIVMTQSPLSLPVTPGEPASISCRVSQSLLHSNGYTYLHWYLQKPGQSPQLLIYKVSNRFSGVPDRFSGSGSGTDFTLKISRVEAEDVGVYYCSQTRHVPYTFGGGTKVEIKR
notes: Human IgG1 with L235A and G237A, human kappa; also called L1+H2; H2L1 whole IgG
binding result [1]: no binding | EC50 [2]: 0.113 µg/mL | EC50 [3]: 0.048 µg/mL | EC50 [4]: 0.044 µg/mL | EC50 [5]: 0.041 µg/mL | Kd [6]: 0.366 nM | koff [6]: 0.000122 s⁻¹ | kon [6]: 333000 M⁻¹ s⁻¹ | Kd [7]: 0.456 nM | koff [7]: 0.000155 s⁻¹ | kon [7]: 340000 M⁻¹ s⁻¹ | Kd [8]: 0.0581 nM | Kd [9]: 0.0498 nM | IC50 [10]: 0.075 µg/mL | IC50 [11]: 0.119 µg/mL | IC50 [12]: 1.28 µg/mL | IC50 [13]: 1.66 µg/mL | Kd [14]: 0.054 nM | Kd [15]: 7.32 nM | koff [15]: 0.00075 s⁻¹ | kon [15]: 106000 M⁻¹ s⁻¹

B2: Mouse monoclonal antibody 2E7 (antibody, mouse IgG2a, V domains shown)
VH: EVKLVESGGGLVQPGGSLKLSCAVSGFTFSDNGMAWVRQAPRKGPEWIAFISNLAYSIDYADTVTGRFTISRDNAKNTLYLEMSSLRSEDTAMYYCVSGTWFAYWGQGTLVTVSA
VL: DVVLTQTPLSLPVSLGDQASISCRVSQSLLHSNGYTYLHWYLQKPGQSPKLLIYKVSNRFSGVPDRFSGSGSGTDFTLKISRVEAEDLGVYFCSQTRHVPYTFGGGTKLEIK
notes: Murine IgG2a heavy chain, murine kappa light chain; also called 2E7 MAb; parental mouse 2E7 MAb
binding result [16]: binds | binding result [17]: binds | binding result [18]: binds | binding result [19]: no binding | binding result [20]: no binding (tested: up to 64 nM) | Kd [6]: 0.317 nM | koff [6]: 0.000128 s⁻¹ | kon [6]: 405000 M⁻¹ s⁻¹ | Kd [7]: 0.394 nM | koff [7]: 0.000151 s⁻¹ | kon [7]: 382000 M⁻¹ s⁻¹ | Kd [8]: 0.0383 nM | Kd [9]: 0.0338 nM | Kd [14]: 0.0361 nM | Kd [21]: 1.58 nM | koff [21]: 0.000428 s⁻¹ | kon [21]: 283000 M⁻¹ s⁻¹
